The labels stand for the following.
B1: SWI/SNF complex subunit SMARCC1, residues 620 to 663; numbered along this chain, Q92922 (parent)
chain: GREWTEQETLLLLEALEMYKDDWNKVSEHVGSRTQDECILHFLR

± gives the uncertainty stated by the source.

Variants of B1 are the subject of the data set. Put plainly: abundance fitness (aPCA) (normalised: wild type 0, dead -1); higher = more abundant; growth selection in yeast, the domain comes from the species named. The settings on record: Homo sapiens.
Take GYEWTEQETLLLLEALEMYKDDWNKVSEHVGSRTQDECILHFLR: the abundance fitness was -0.04 ± 0.097. For GWEWTEQETLLLLEALEMYKDDWNKVSEHVGSRTQDECILHFLR the value was -0.023 ± 0.13. Regarding GFEWTEQETLLLLEALEMYKDDWNKVSEHVGSRTQDECILHFLR, the abundance fitness turned out to be 0.253 ± 0.15. For GCEWTEQETLLLLEALEMYKDDWNKVSEHVGSRTQDECILHFLR the value was 0.084 ± 0.14; for GVEWTEQETLLLLEALEMYKDDWNKVSEHVGSRTQDECILHFLR, 0.086 ± 0.1. Regarding GGEWTEQETLLLLEALEMYKDDWNKVSEHVGSRTQDECILHFLR, the abundance fitness was -0.051 ± 0.11. For the variant GSEWTEQETLLLLEALEMYKDDWNKVSEHVGSRTQDECILHFLR, the abundance fitness was -0.147 ± 0.065.

With GEEWTEQETLLLLEALEMYKDDWNKVSEHVGSRTQDECILHFLR, the abundance fitness was 0.145 ± 0.095. The result for GAEWTEQETLLLLEALEMYKDDWNKVSEHVGSRTQDECILHFLR reads 0.288 ± 0.12; that for GRQWTEQETLLLLEALEMYKDDWNKVSEHVGSRTQDECILHFLR, 0.12 ± 0.12.

GRMWTEQETLLLLEALEMYKDDWNKVSEHVGSRTQDECILHFLR: the abundance fitness is -0.063 ± 0.13.

On to GRGWTEQETLLLLEALEMYKDDWNKVSEHVGSRTQDECILHFLR, for which the abundance fitness was found to be 0.158 ± 0.063. For GRFWTEQETLLLLEALEMYKDDWNKVSEHVGSRTQDECILHFLR the value was 0.178 ± 0.14.

Turning to GRDWTEQETLLLLEALEMYKDDWNKVSEHVGSRTQDECILHFLR, the abundance fitness was 0.311 ± 0.12. For GRAWTEQETLLLLEALEMYKDDWNKVSEHVGSRTQDECILHFLR the value was -0.04 ± 0.12; for GRPWTEQETLLLLEALEMYKDDWNKVSEHVGSRTQDECILHFLR, 0.077 ± 0.11; for GRLWTEQETLLLLEALEMYKDDWNKVSEHVGSRTQDECILHFLR, -0.03 ± 0.12. For GRSWTEQETLLLLEALEMYKDDWNKVSEHVGSRTQDECILHFLR the value was 0.329 ± 0.084; for GRCWTEQETLLLLEALEMYKDDWNKVSEHVGSRTQDECILHFLR, -0.353 ± 0.14; for GRYWTEQETLLLLEALEMYKDDWNKVSEHVGSRTQDECILHFLR, 0.229 ± 0.11. For GRWWTEQETLLLLEALEMYKDDWNKVSEHVGSRTQDECILHFLR the value was -0.674 ± 0.12; for GRVWTEQETLLLLEALEMYKDDWNKVSEHVGSRTQDECILHFLR, 0.312 ± 0.096; for HREWTEQETLLLLEALEMYKDDWNKVSEHVGSRTQDECILHFLR, -0.147 ± 0.15. Turning to RREWTEQETLLLLEALEMYKDDWNKVSEHVGSRTQDECILHFLR, the abundance fitness is -0.383 ± 0.12. For IREWTEQETLLLLEALEMYKDDWNKVSEHVGSRTQDECILHFLR the value was 0.128 ± 0.1; for DREWTEQETLLLLEALEMYKDDWNKVSEHVGSRTQDECILHFLR, 0.277 ± 0.1; for AREWTEQETLLLLEALEMYKDDWNKVSEHVGSRTQDECILHFLR, 0.081 ± 0.2. For FREWTEQETLLLLEALEMYKDDWNKVSEHVGSRTQDECILHFLR the value was -0.122 ± 0.2; for WREWTEQETLLLLEALEMYKDDWNKVSEHVGSRTQDECILHFLR, -0.293 ± 0.28; for YREWTEQETLLLLEALEMYKDDWNKVSEHVGSRTQDECILHFLR, 0.191 ± 0.12. For GREWTEQITLLLLEALEMYKDDWNKVSEHVGSRTQDECILHFLR the value was -0.746 ± 0.23; for GREWTEQGTLLLLEALEMYKDDWNKVSEHVGSRTQDECILHFLR, -0.861 ± 0.12; for GREWTEQPTLLLLEALEMYKDDWNKVSEHVGSRTQDECILHFLR, -0.593 ± 0.12.

With GREWTEQNTLLLLEALEMYKDDWNKVSEHVGSRTQDECILHFLR, the abundance fitness is -0.584 ± 0.12. The result for GREWTEQHTLLLLEALEMYKDDWNKVSEHVGSRTQDECILHFLR reads -0.54 ± 0.17; that for GREWTEQFTLLLLEALEMYKDDWNKVSEHVGSRTQDECILHFLR, -0.702 ± 0.26; that for GREWTEQCTLLLLEALEMYKDDWNKVSEHVGSRTQDECILHFLR, -0.616 ± 0.16. The result for GREWTEQDTLLLLEALEMYKDDWNKVSEHVGSRTQDECILHFLR reads -0.76 ± 0.23. The result for GREWTEQMTLLLLEALEMYKDDWNKVSEHVGSRTQDECILHFLR reads -0.482 ± 0.21.

As for GREWTEQLTLLLLEALEMYKDDWNKVSEHVGSRTQDECILHFLR, the abundance fitness was -0.936 ± 0.13. For GREWTEQATLLLLEALEMYKDDWNKVSEHVGSRTQDECILHFLR the value was -0.808 ± 0.14; for GREWNEQETLLLLEALEMYKDDWNKVSEHVGSRTQDECILHFLR, -0.086 ± 0.12; for GREWVEQETLLLLEALEMYKDDWNKVSEHVGSRTQDECILHFLR, -0.461 ± 0.091. For GREWMEQETLLLLEALEMYKDDWNKVSEHVGSRTQDECILHFLR the value was 0.11 ± 0.07; for GREWCEQETLLLLEALEMYKDDWNKVSEHVGSRTQDECILHFLR, -0.14 ± 0.14. For GREWEEQETLLLLEALEMYKDDWNKVSEHVGSRTQDECILHFLR the value was 0.081 ± 0.1; for GREWPEQETLLLLEALEMYKDDWNKVSEHVGSRTQDECILHFLR, -0.572 ± 0.16; for GREWYEQETLLLLEALEMYKDDWNKVSEHVGSRTQDECILHFLR, -0.116 ± 0.11. On to GREWIEQETLLLLEALEMYKDDWNKVSEHVGSRTQDECILHFLR, for which the abundance fitness was -0.201 ± 0.11. For GREWLEQETLLLLEALEMYKDDWNKVSEHVGSRTQDECILHFLR the value was -0.174 ± 0.065; for GREWAEQETLLLLEALEMYKDDWNKVSEHVGSRTQDECILHFLR, -0.363 ± 0.12; for GREWKEQETLLLLEALEMYKDDWNKVSEHVGSRTQDECILHFLR, 0.03 ± 0.099. For GREWDEQETLLLLEALEMYKDDWNKVSEHVGSRTQDECILHFLR the value was -0.069 ± 0.13; for GREWQEQETLLLLEALEMYKDDWNKVSEHVGSRTQDECILHFLR, -0.127 ± 0.11; for GREWREQETLLLLEALEMYKDDWNKVSEHVGSRTQDECILHFLR, -0.241 ± 0.069. For GREWWEQETLLLLEALEMYKDDWNKVSEHVGSRTQDECILHFLR the value was -0.693 ± 0.24. For GREWHEQETLLLLEALEMYKDDWNKVSEHVGSRTQDECILHFLR, the abundance fitness is -0.513 ± 0.14. The result for GREWGEQETLLLLEALEMYKDDWNKVSEHVGSRTQDECILHFLR reads -0.755 ± 0.11.
